Data as given in patent publication US20240116985A1 (published 2024).
Starred links: 1 amine or outer side, 2 acyl side, 3 side chain; linkers in the order of their positions; H or OH if unused. Positions of bridges follow the written chain, without caps; N, C: chain ends. Non-standard residues stand in square brackets, D forms with d. Primed or numbered codes have the meaning given here. PyrS2″ = (S)-3-amino-1-((pent-4-en-1-yloxy)carbonyl)pyrrolidine-3-carboxylic acid (stapling residue), C=CCCCOC(=O)N1CC[C@@](N[*:1])(C(=O)[*:2])C1; B5(4) = 2,2-bis(4-pentenyl)glycine = 2-amino-2-(pent-4-en-1-yl)hept-6-enoic acid (stitching residue), C=CCCCC(CCCC=C)(N[*:1])C(=O)[*:2]; B5(5) = 2,2-bis(4-pentenyl)glycine, 2-amino-2-(pent-4-en-1-yl)hept-6-enoic acid (stitching residue), C=CCCCC(CCCC=C)(N[*:1])C(=O)[*:2]; PyrS2 = (S)-3-amino-1-((pent-4-en-1-yloxy)carbonyl)pyrrolidine-3-carboxylic acid, C=CCCCOC(=O)N1CC[C@@](N[*:1])(C(=O)[*:2])C1; 5iPr3COOHF = (S)-3-(2-amino-2-carboxyethyl)-5-isopropylbenzoic acid, CC(C)c1cc(C[C@H](N[*:1])C(=O)[*:2])cc(C(=O)[*:3])c1; MorphAsn = (S)-2-amino-4-morpholino-4-oxobutanoic acid, O=C(C[C@H](N[*:1])C(=O)[*:2])N1CCOCC1; B5 = 2-amino-2-(pent-4-en-1-yl)hept-6-enoic acid, C=CCCCC(CCCC=C)(N[*:1])C(=O)[*:2]; Phe(3-CF3) = N[C@@H](Cc1cccc(C(F)(F)F)c1)C(=O)O; Phe(4-CF3) = N[C@@H](Cc1ccc(C(F)(F)F)cc1)C(=O)O; Phe(3-COOH) = N[C@@H](Cc1cccc(C(=O)O)c1)C(=O)O; 2F3MeF = Cc1cccc(C[C@H](N[*:1])C(=O)[*:2])c1F; Phe(2-CF3) = N[C@@H](Cc1ccccc1C(F)(F)F)C(=O)O; Phe(3,5-F2) = N[C@@H](Cc1cc(F)cc(F)c1)C(=O)O; S7 = C[C@@](CCCCCC=[*:3])(N[*:1])C(=O)[*:2]; Bta = N[C@@H](Cc1csc2ccccc12)C(=O)O; Lys(iPr) = CC(C)NCCCC[C@H](N)C(=O)O; αAllylPro = C=CC[C@@]1(C(=O)O)CCCN1; tBuAla = CC(C)(C)C[C@H](N)C(=O)O; 3Thi = N[C@@H](Cc1ccsc1)C(=O)O; Cha = N[C@@H](CC1CCCCC1)C(=O)O; S8 = C=CCCCCCC[C@](C)(N)C(=O)O; hSer = N[C@@H](CCO)C(=O)O; 34ClF = not defined here; Aib = CC(C)(N)C(=O)O

What was measured:
[1] = biological target: T1, B-cat-Halo (UniProt P35222 1-781); assay: cell-based or functional assay
T1 sequence (looked up): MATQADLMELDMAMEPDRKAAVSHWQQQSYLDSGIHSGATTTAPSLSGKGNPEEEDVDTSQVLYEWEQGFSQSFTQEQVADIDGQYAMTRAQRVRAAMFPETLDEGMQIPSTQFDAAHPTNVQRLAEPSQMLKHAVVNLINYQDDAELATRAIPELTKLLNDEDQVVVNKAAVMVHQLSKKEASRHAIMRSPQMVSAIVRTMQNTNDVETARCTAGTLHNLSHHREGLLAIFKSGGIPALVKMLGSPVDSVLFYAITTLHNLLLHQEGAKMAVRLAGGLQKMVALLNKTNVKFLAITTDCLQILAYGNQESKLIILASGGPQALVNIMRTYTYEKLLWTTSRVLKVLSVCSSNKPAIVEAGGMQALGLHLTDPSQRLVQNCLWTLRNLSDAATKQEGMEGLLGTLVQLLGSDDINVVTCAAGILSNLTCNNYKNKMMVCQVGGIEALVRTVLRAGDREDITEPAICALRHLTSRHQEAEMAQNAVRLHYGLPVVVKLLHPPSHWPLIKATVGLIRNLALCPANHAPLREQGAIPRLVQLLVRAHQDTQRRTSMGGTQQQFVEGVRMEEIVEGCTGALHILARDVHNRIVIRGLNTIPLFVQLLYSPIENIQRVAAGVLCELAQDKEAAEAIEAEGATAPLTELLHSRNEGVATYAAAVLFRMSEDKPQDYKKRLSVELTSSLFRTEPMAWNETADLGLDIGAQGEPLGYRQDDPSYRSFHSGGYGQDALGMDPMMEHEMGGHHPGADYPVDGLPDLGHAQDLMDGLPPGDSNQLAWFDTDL

[2] = biological target: T2, beta-catenin in DLD1 TCF/LEF luciferase reporter cells (UniProt P35222 1-781); assay: cell-based or functional assay
T2 sequence (looked up): T1 sequence (looked up)

[3] = biological target: T3, full-length beta-Catenin (Uniprot ID P35222) (Homo sapiens (Human), UniProt P35222 2-781); assay: fluorescence polarization competition: full-length beta-catenin + 5FAM-TCF4(10-53) probe, peptide titrated
T3 construct: The AlphaScreen assay used a Histidine (Nickel Chelate) detection kit, so a His tag is likely, but no tag is described; also called B-Catenin; bCat
T3 sequence: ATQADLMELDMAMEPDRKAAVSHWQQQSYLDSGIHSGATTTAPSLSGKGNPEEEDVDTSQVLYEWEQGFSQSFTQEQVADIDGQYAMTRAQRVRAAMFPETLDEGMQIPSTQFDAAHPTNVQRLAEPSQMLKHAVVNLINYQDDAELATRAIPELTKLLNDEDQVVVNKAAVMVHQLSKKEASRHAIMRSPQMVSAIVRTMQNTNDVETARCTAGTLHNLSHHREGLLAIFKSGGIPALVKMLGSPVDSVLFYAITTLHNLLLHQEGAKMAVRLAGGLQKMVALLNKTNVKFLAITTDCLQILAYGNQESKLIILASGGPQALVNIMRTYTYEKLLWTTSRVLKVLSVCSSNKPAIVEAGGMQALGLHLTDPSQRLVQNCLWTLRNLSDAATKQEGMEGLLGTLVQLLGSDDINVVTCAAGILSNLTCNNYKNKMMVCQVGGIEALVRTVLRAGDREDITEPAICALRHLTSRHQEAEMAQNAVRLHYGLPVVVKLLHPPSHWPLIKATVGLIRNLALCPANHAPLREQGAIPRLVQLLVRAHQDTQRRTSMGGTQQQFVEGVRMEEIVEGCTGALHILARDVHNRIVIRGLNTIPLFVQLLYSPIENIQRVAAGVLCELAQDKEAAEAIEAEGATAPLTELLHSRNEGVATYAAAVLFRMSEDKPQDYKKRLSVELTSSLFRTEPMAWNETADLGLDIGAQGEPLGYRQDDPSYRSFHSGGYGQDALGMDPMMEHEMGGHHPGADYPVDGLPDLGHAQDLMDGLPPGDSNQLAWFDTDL
Procedure: (§1) The plate was incubated protected from light for 60 minutes at 20° C. prior to read. Reads were performed on a CLARIOstar plate reader (BMG Labtech) in duplicate, and data were fitted to a 1:1 binding model with hill slope using an in-house script. All provided concentrations are final concentrations.

[4] = biological target: T3, full-length beta-Catenin (Uniprot ID …); assay: AlphaScreen competition: full-length beta-catenin + biotin-TCF4(10-53) probe, peptide titrated
Procedure: Equal volume of the titrated peptide was added to the plate and incubated for 15 minutes at 20° C. Then 4 uL of donor and 4 uL acceptor beads at 10 ug/mL were added to the plate, for a 16 uL reaction pool and protected from light for 60 minutes at 20° C. prior to read. Reads were performed on a CLARIOstar plate reader (BMG Labtech) in duplicate, and data were fitted to a 1:1 binding model with hill slope using an in-house script. All provided concentrations are final concentrations.

[5] = biological target: T4, full-length beta-Catenin (Uniprot ID P35222) (Homo sapiens (Human), UniProt P35222 2-781); assay: fluorescence polarization competition; 5FAM-TCF4(10-53) probe with full-length beta-catenin
T4 construct: also called B-Catenin; bCat
T4 sequence: T3 sequence
Procedure: as §1

[6] = biological target: T4, full-length beta-Catenin (Uniprot ID …); assay: Alphascreen competition; biotin-TCF4(10-53) probe with full-length beta-catenin
Summary of the method: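 Titrated peptide was preincubated 15 minutes at 20° C, then donor and acceptor beads were added for 60 minutes at 20° C protected from light. Reads were done in duplicate, and data were fitted to a 1:1 binding model with Hill slope; concentrations are final.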

Ac-[αAllylPro]N[Cha][B5(5)]DQ[Lys(iPr)]AFL[PyrS2″]F[Bta][MorphAsn]-NH2 (staple 1-4, 4-11) [I-2426]
NanoBRET Abs IC50 [1]: > 20000 nM

Ac-[αAllylPro]D[tBuAla][B5(5)]D[Phe(3-COOH)]AAFL[PyrS2][Phe(2-CF3)][Bta]QVA-NH2 (staple 1-4, 4-11) [I-2401]
DLD1 4% Abs IC50 [2]: 800 nM

Ac-[αAllylPro]D[tBuAla][B5(5)]D[Phe(3-COOH)]AAFL[PyrS2][Phe(2-CF3)][Bta]QAA-NH2 (staple 1-4, 4-11) [I-2399]
DLD1 4% Abs IC50 [2]: 2200 nM

Ac-[αAllylPro]N[Cha][B5(5)]DQQAFL[PyrS2″]F[Bta]K-NH2 (staple 1-4, 4-11) [I-2421]
NanoBRET Abs IC50 [1]: > 20000 nM

Ac-[αAllylPro]D[tBuAla][B5(5)]D[5iPr3COOHF]AAFL[PyrS2″][Phe(2-CF3)][Bta]Q-NH2 (staple 1-4, 4-11) [I-2430]
NanoBRET Abs IC50 [1]: 4500 nM

Ac-[αAllylPro]D[Cha][B5(5)]DQ[Lys(iPr)]AFL[PyrS2″]F[Bta]K-NH2 (staple 1-4, 4-11) [I-2429]
NanoBRET Abs IC50 [1]: > 20000 nM

B1: I-255 (peptide)
peptide: Ac-[αAllylPro]DA[B5(4)]DDAAFV[S8][Phe(4-CF3)]WQ-NH2
modifications: staple 1-4, 4-11
notes: Stapled peptide composition; also called Ac-PL3-Asp-Ala-B5-Asp-Asp-Ala-Ala-Phe-Val-S8-4F3MeF-Trp-Gln-NH2
EC50 [3]: 5000 nM
EC50 [4]: 1960 nM

Ac-[αAllylPro]D[tBuAla][B5(5)]D[Phe(3-COOH)]AAFL[PyrS2][Phe(2-CF3)][Bta]QFA-NH2 (staple 1-4, 4-11) [I-2400]
DLD1 4% Abs IC50 [2]: 800 nM

B2: I-2417 (peptide)
peptide: Ac-[αAllylPro]D[tBuAla][B5(5)]NT[Aib]AFN[PyrS2″][3Thi][34ClF]Q-NH2
modifications: staple 1-4, 4-11; reading uncertain; also: printed as Ac-PL3-Asp-Npg-B5-Asn-Thr-Aib-Ala-Phe-Asn-PyrS2-3Thi-34C1F-Gln-NH2
NanoBRET Abs IC50 [1]: 21600 nM

Ac-[αAllylPro]N[Cha][B5(5)]DQ[hSer]AFL[PyrS2″]F[Bta]K-NH2 (staple 1-4, 4-11) [I-2419]
NanoBRET Abs IC50 [1]: > 20000 nM

Ac-[αAllylPro]D[tBuAla][B5(5)]D[Phe(3-COOH)]AAFL[PyrS2″][2F3MeF][Bta]QL[dQ]-NH2 (staple 1-4, 4-11) [I-2398]
DLD1 4% Abs IC50 [2]: 1300 nM

Ac-[αAllylPro]D[tBuAla][B5(5)]NT[Aib]AFN[PyrS2″][3Thi][Bta]R-NH2 (staple 1-4, 4-11) [I-2413]
DLD1 4% Abs IC50 [2]: > 20000 nM

B3: I-219 (peptide)
peptide: Ac-[αAllylPro]DA[B5(4)]DEAA[Phe(3,5-F2)]V[S8]FWQ-NH2
modifications: staple 1-4, 4-11
notes: Stapled peptide composition; also called Ac-PL3-Asp-Ala-B5-Asp-Glu-Ala-Ala-35FF-Val-S8-Phe-Trp-Gln-NH2
EC50 [3]: 2860 nM
EC50 [4]: 131 nM

B4: I-220 (peptide)
peptide: Ac-[αAllylPro]DA[B5(4)]DEAA[Phe(3,5-F2)]V[S8]FWQ-NH2
modifications: staple 1-4, 4-11
notes: as for B3
EC50 [3]: 2860 nM
EC50 [4]: 131 nM

B5: I-217 (peptide)
peptide: Ac-[αAllylPro]DA[B5(4)]DEAAXV[S8]FWQ-NH2
modifications: staple 1-4, 4-11; not fully specified (residue 9); printed as Ac-PL3-Asp-Ala-B5-Asp-Glu-Ala-Ala-MeTyr-Val-S8-Phe-Trp-Gln-NH2
notes: Stapled peptide composition; also called Ac-PL3-Asp-Ala-B5-Asp-Glu-Ala-Ala-MeTyr-Val-S8-Phe-Trp-Gln-NH2
EC50 [3]: 1960 nM
EC50 [4]: 90 nM

B6: I-250 (peptide)
peptide: Ac-[αAllylPro]DA[B5]DDAAFV[S8][Phe(3-CF3)]WQ-NH2
modifications: staple 1-4, 4-11
notes: Stapled peptide composition; also called Ac-PL3-Asp-Ala-B5-Asp-Asp-Ala-Ala-Phe-Val-S8-3F3MeF-Trp-Gln-NH2
EC50 [3]: 5000 nM
EC50 [4]: 1200 nM

B7: I-254 (peptide)
peptide: XDAXDDAAFVXFWQ
modifications: not fully specified; N-terminal Ac; C-terminal NH2; PL3 at 1, B5 at 4, S8 at 11 (staples 1-4 and 4-11 by olefin metathesis); 4F3MeF at 12
notes: as for B1
EC50 [3]: 5000 nM
EC50 [4]: 1960 nM

B8: I-251 (peptide)
peptide: Ac-[αAllylPro]DA[B5]DDAAFV[S8][Phe(3-CF3)]WQ-NH2
modifications: staple 1-4, 4-11
notes: as for B6
EC50 [3]: 5000 nM
EC50 [4]: 1200 nM

B9: I-132 (peptide)
peptide: Ac-[αAllylPro]DA[B5(4)]DEAAFV[S7]FWQ-NH2
modifications: staple 1-4, 4-11
notes: Stitched (two-staple) peptide composition
EC50 [5]: 5000 nM
EC50 [6]: 5090 nM

Ac-[αAllylPro]D[tBuAla][B5(5)]D[Phe(3-COOH)]AAFL[PyrS2][Phe(2-CF3)][Bta]QL[dL]-NH2 (staple 1-4, 4-11) [I-2396]
DLD1 4% Abs IC50 [2]: 1500 nM

Ac-[αAllylPro]D[tBuAla][B5(5)]D[5iPr3COOHF]QAFL[PyrS2″][Phe(2-CF3)][Bta]A-NH2 (staple 1-4, 4-11) [I-2431]
NanoBRET Abs IC50 [1]: 7000 nM

Ac-[αAllylPro]D[tBuAla][B5(5)]NT[Aib]AFN[PyrS2″][3Thi][Bta]T-NH2 (staple 1-4, 4-11) [I-2416]
DLD1 4% Abs IC50 [2]: > 20000 nM

B10: I-218 (peptide)
peptide: Ac-[αAllylPro]DA[B5(4)]DEAAXV[S8]FWQ-NH2
modifications: staple 1-4, 4-11; not fully specified (residue 9); printed as Ac-PL3-Asp-Ala-B5-Asp-Glu-Ala-Ala-MeTyr-Val-S8-Phe-Trp-Gln-NH2
notes: as for B5
EC50 [3]: 1960 nM
EC50 [4]: 90 nM
